Data as given in US20040156824A1.
Ends that are not written are not given here.

How the values were obtained:
[1] = target: nucleohistones expressed in the nucleus of mammalian cells; assay: radioimmunoassay on paraformaldehyde-acetone-treated cells
[2] = target: variant of the HLA-Dr antigen expressed on the cell surface of human B-lymphocytes and malignant lymphomas (human); assay: indirect cell binding assay
[3] = target: variant of the HLA-Dr antigen expressed on the cell surface of human B-lymphocytes and malignant lymphomas (human); assay: live cell binding assay
[4] = target: nucleohistones expressed in the nucleus of mammalian cells; assay: cell binding assay (printed as live cell binding assay)
[5] = target: variant of the HLA-Dr antigen expressed on the cell surface of human B-lymphocytes and malignant lymphomas (human); assay: live cell radioimmunoassay on Raji cells

125I-labeled TNT-1 F(ab')2 fragment (antibody)
immunoreactivity [1]: > 80%

Lym-1/3B immunoconjugate (from UniProt P60568 53-78)
percent of the antibody binding reactivity retained against unconjugated antibody [2]: > 75%

Lym-1/4A immunoconjugate (from UniProt P60568 125-153)
percent of the antibody binding reactivity retained against unconjugated antibody [2]: > 75%

Lym-1/4B immunoconjugate (from UniProt P60568 107-153)
percent of the antibody binding reactivity retained against unconjugated antibody [2]: > 75%

Lym-1/A3 immunoconjugate (from UniProt P60568 57-92)
percent of the antibody binding reactivity retained against unconjugated antibody [2]: > 75%

Lym-1/IL-2 immunoconjugate (from UniProt P60568 21-153)
percent of the antibody binding reactivity retained against unconjugated antibody [3]: > 75%

TNT-1/IL-2 immunoconjugate (from UniProt P60568 21-153)
percent of the antibody binding reactivity retained against unconjugated antibody [4]: > 75%

TRMLTFKFYMPKKATELKHLQC (peptide, UniProt P60568 57-78, looked up, part only, also: conjugated to murine antibody Lym-1) [Lym-1/B1 immunoconjugate]
percent of the antibody binding reactivity retained against unconjugated antibody [2]: > 75%

B1: 125I-labeled Lym-1 F(ab')2 fragment (antibody, from another filing, mouse IgG2a, V domains shown)
VH: QLKESGPGLVAPSQSLSITCTISGFSLTSYGVHWVRQPPGKGLEWLVVIWSDGSTTYNSALKSRLSISKDNSKSQVFLKMNSLQTDDTAIYYCASHYGSTLAFASWGHGTLVTVSA
VL: DIQMTQSPASLSASVGETVTIICRASVNIYSYLAWYQQKQGKSPQLLVYNAKILAEGVPSRFSGSGSGTQFSLKINSLQPEDFGSYYCQHHYGTFTFGSGTKLEIK
percent of radiolabeled preparation bound to cells (immunoreactivity) [5]: 80%

QMILNGINNYKNPKLTR (peptide, UniProt P60568 42-58, looked up, part only, also: conjugated to murine antibody Lym-1) [Lym-1/E6 immunoconjugate]
percent of the antibody binding reactivity retained against unconjugated antibody [2]: > 75%

FYMPKKATELKHLQC (peptide, UniProt P60568 64-78, looked up, part only, also: conjugated to murine antibody Lym-1) [Lym-1/3A immunoconjugate]
percent of the antibody binding reactivity retained against unconjugated antibody [2]: > 75%
